Here are results for 5 molecules from patent publication US20220404334A1, “BIOCHIP HAVING MICROCHANNEL PROVIDED WITH CAPTURING AGENT FOR PERFORMING CYTOLOGICAL ANALYSIS” (CASE WESTERN RESERVE UNIVERSITY, priority 2019, published 2022).

For one test, the target named is Recombinant human ICAM-1 (Homo sapiens, UniProt P05362). The experiment in a line: Microfluidic flow adhesion of HbSS RBCs to immobilized ICAM-1, inhibition experiments. The class given is cell-based. The protocol: ICAM-1 functionalized microchannels of the microfluidic device were connected to blood-containing syringes through 40-cm inlet tubing. A total of […] of whole blood sample was perfused into the microchannels at an approximate shear stress of 1 dyne/cm^2, corresponding to the typical shear stress observed in postcapillary venules, via a constant displacement syringe pump (New Era NE-300; New Era Pump Systems, Farmingdale, N.Y.). To remove the nonadherent cells, another syringe filled with wash buffer (1% bovine serum albumin and 0.09% sodium azide in 13 phosphate buffered saline [PBS]) was connected to the microchannels, and the buffer solution was injected at […], corresponding to a wall shear stress of 1 dyne/cm^2, until all nonadherent cells had been cleared. Phase-contrast images of the microchannel surface were obtained using an inverted microscope at 203. Quantification of ICAM-1-adherent RBCs was performed manually using Adobe Photo-shop CS5 (Adobe, San Jose, Calif.) within a rectangular field of view (fov) with a surface area of 32 mm^2.
Sequence of Recombinant human ICAM-1 (P05362 28-532): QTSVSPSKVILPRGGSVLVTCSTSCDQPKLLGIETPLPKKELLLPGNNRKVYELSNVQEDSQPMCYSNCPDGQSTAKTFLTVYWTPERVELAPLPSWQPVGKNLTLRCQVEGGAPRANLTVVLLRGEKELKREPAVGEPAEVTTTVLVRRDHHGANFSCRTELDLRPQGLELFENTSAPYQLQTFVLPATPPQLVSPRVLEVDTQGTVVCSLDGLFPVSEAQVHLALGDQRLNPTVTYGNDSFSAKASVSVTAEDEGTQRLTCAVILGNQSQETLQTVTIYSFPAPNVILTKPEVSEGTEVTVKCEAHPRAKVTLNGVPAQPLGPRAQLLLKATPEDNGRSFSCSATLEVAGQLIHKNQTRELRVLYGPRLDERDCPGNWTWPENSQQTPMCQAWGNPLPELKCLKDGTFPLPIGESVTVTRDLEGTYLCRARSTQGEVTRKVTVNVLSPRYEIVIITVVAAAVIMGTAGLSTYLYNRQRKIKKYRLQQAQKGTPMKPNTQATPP
For the inhibition studies, whole HbSS blood samples were mixed with a monoclonal mouse antibody against human α4β1 or LFA-1 at a final antibody concentration of […] and incubated at 37° C. for 1 hour prior to the adhesion experiments. As a control, samples were treated with the same concentration of isotype-control mouse immunoglobulin G1 for the same duration. Anti-human LFA-1 antibody and the isotype-control mouse immunoglobulin G were from BioLegend (San Diego, Calif.). Anti-human α4β1 antibody was purchased from Abcam (Cambridge, Mass.). To block the β2-associated adhesion pathways, a recombinant human β2 protein solution (Novus Biologicals, Centennial, Colo.) was perfused into ICAM-1-functionalized microchannels and incubated for 1 hour at 37° C. Before starting the adhesion experiments, the microchannels were rinsed 3 times with PBS. Similarly, to test the inhibitory effect of fibrinogen (Enzo Life Sciences, Farmingdale, N.Y.) or low molecular weight heparin (LMWH; AMSBIO, Cambridge, Mass.), ICAM-1-functionalized microchannels were injected with fibrinogen (range, 1-20 mg/mL) or LMWH (range, 0.1-5 mg/mL). After an hour at 37° C., the microchannels were rinsed with PBS 3 times, and adhesion was assessed as above.
Minitab 19 (Minitab, State College, Pa.) was used to analyze the results. A normality test was performed to determine whether the variables were normally distributed. Because of the largely non-normally distributed variables, Mann-Whitney U tests were used to compare 2 groups, and Kruskal-Wallis tests with Dunn's correction were used to compare multiple groups, unless stated otherwise. K-means clustering analysis was performed to identify distinct subject subpopulations based on hemolysis biomarkers. Through-out this article, the error bars represent±standard error of the mean (SEM). P<0.05 was considered statistically significant.

Test [1] has as its system heme-activated endothelial cells (HUVECs and HPMECs). The experiment in a line: Endothelium-on-a-chip: sickle RBC adhesion to heme-activated endothelial cells under hypoxia. The note with it: 5 μM, N=13 subjects. The class given is cell-based, human. The protocol:
The assembled microchannels are rinsed serially with PBS, 100% ethanol, and GMBS following a 20-minute incubation. Thereafter, another washing step is performed using 100% ethanol and PBS before loading the microchannels with a fibronectin solution at a concentration of 0.2 mg/mL. Fibronectin-loaded microchannels are incubated at 37° C. for 1 hour for complete protein immobilization on the GMBS-functionalized surface. To prepare the endothelialized microchannels, human endothelial cells are seeded into fibronectin-coated microchannels at a density of 4×10^6 cells/mL and incubated for 2 hours at 37° C. and 5% CO2 to allow cell attachment and spreading, while replacing the culture medium in the microchannels every hour.
The activating agents (e.g., heme or TNF-α) are then injected into the microchannels in a serum-free medium and incubated for a pre-determined period for activation to take place. Before using the activated endothelial cells, the microfluidic channels are rinsed for at least 2 times with serum-free medium.
When using blood samples collected in Ethylenediaminetetraacetic acid (EDTA) containing vacutainers, the blood samples are first centrifuged and washed three times with PBS to isolate blood cells from plasma. When in contact with adherent endothelial cells, EDTA will induce cell detachment by inhibiting Ca^2+ ions that are necessary for cell adhesion through integrins. […]

In test [2] the target is T1, P-selectin (Homo sapiens, UniProt P16109).
T1 sequence (P16109 42-830): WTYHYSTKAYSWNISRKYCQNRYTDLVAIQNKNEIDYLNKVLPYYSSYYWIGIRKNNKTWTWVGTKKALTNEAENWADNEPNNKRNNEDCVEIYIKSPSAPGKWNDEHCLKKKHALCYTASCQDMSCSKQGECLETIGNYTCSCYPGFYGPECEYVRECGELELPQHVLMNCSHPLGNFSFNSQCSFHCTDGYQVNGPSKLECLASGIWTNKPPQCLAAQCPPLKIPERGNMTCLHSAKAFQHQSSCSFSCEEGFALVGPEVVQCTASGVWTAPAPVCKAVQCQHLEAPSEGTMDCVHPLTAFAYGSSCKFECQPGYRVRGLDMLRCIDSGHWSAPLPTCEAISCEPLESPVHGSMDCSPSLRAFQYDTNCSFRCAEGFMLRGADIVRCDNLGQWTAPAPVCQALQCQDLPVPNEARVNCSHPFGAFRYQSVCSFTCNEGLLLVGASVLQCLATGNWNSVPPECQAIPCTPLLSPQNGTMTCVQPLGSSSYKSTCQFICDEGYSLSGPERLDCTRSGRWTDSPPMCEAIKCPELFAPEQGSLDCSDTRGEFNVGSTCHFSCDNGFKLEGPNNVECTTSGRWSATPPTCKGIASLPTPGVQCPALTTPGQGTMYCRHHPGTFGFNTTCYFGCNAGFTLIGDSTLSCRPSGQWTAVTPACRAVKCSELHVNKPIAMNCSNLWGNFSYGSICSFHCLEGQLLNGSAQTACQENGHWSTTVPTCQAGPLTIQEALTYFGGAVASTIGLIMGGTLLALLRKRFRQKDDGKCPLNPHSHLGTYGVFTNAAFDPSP
Put plainly: Microfluidic whole blood assay of leukocyte adhesion to immobilized P-selectin, microchannels pre-treated with drug (inhibition experiments). The class given is cell-based. The method, then:
(§1) Microfluidic devices were fabricated using a lamination technique. Each microfluidic device contained 3 identical microchannels with a height of 50 μm (FIG. 6A), which were designed to recapitulate volume and flow of post-capillary venules. The microchannels were functionalized with recombinant human P-selectin (25 μg/mL) and blocked with 2% bovine serum albumin (BSA) to pre-vent non-specific adhesion. After tubing assembly, whole blood samples were mixed with Hanks' buffer modified with calcium and magnesium (1:1 v/v), and 15 μL of the diluted whole blood was injected into the microchannels using New Era NE-300 syringe pump system (Farming-dale, N.Y.) at an approximate shear rate of 1 dyne/cm^2. Non-adherent cells were rinsed out by flowing Hanks' buffer. Phase-contrast images of the microchannels with adherent leukocytes were recorded at 10× with an inverted microscope (Olympus IX83) and a camera (EXi Blue EXI-BLU-RF-M-14-C), and adherent leukocytes were manually quantified with Adobe Photoshop software (San Jose, Calif.) in a 32 mm^2 area.
Crizanlizumab (ADAKVEO®, SEG101) stock solution (10 mg/mL) was donated by Novartis (Basel, Switzerland). For the inhibition experiments, P-selectin immobilized-microchannels were pre-treated with Hanks buffer as vehicle control, or Crizanlizumab with graded concentrations of 1, 10, 100 μg/mL, or 1 mg/mL at 37° C. for 30 min. There-after, the adhesion assay was performed. Human IgG2 (Sigma Aldrich, St. Louis, Mo.), at 100 μg/mL, was included as the isotype control for Crizanlizumab. For the detachment experiments, modified microchannels with individual inlets for separately injecting blood and drug-containing buffer were designed to allow transition from washing buffer to Crizanlizumab during rinsing. Two synchronous pumps connected to these inlets were programmed such that Crizanlizumab at 10 μg/mL was injected into microchannels after Hanks buffer without a disruption in shear rate. The programmed flow rates of the two synchronous pumps over the course of the experiment are shown in FIG. 7A, which insured a constant shear rate in the microchannels. Cell behaviors were also continuously recorded. Phase contrast images of the adherent leukocytes were collected during Hanks's buffer rinse and Crizanlizumab flow for comparison.
Leukocyte adhesion data were reported as mean±standard error of the mean (SEM). Clinical variables of the study population were re-ported as mean±standard deviation (SD). Statistical analyses were per-formed with Minitab (Minitab Inc., State College, Pa.). A test for normality was initially performed on relevant variables. A paired t-test was per-formed to compare paired groups before and after Crizanlizumab treatment. Statistical significance was determined based on a p-value<0.05 (p<0.05).

Test [3] has as its target T1, P-selectin. The experiment in a line: Detachment experiments: drug flowed over leukocytes already adherent to immobilized P-selectin. The format is cell-based. The protocol:
as §1
Crizanlizumab (ADAKVEO®, SEG101) stock solution (10 mg/mL) was donated by Novartis (Basel, Switzerland). For the inhibition experiments, P-selectin immobilized-microchannels were pre-treated with Hanks buffer as vehicle control, or Crizanlizumab with graded concentrations of 1, 10, 100 μg/mL, or 1 mg/mL at 37° C. for 30 min. There-after, the adhesion assay was performed. Human IgG2 (Sigma Aldrich, St. Louis, Mo.), at 100 μg/mL, was included as the isotype control for Crizanlizumab. For the detachment experiments, modified microchannels with individual inlets for separately injecting blood and drug-containing buffer were designed to allow transition from washing buffer to Crizanlizumab during rinsing. […] Cell behaviors were also continuously recorded. […]
Leukocyte adhesion data were reported as mean±standard error of the mean (SEM). […] Statistical significance was determined based on a p-value<0.05 (p<0.05).

The target in test [4] is T1, P-selectin. Further details: host or cells: patients with SCD (endogenous protein in vivo). The note with it: infused monthly, patients with SCD; cited from earlier work.
Where [5] appears, read: pre-treatment 1 μg/mL, HbSS on-transfusion samples, N=8.
Where [6] appears, read: pre-treatment 10 μg/mL, HbSS on-transfusion samples, N=8.
Setting [7] is: pre-treatment 1 mg/mL, HbSS on-transfusion samples, N=8.

Consider fibrinogen, for which the “Effect on RBC adhesion to ICAM-1” value on Recombinant human ICAM-1 (microchannels incubated with 1 mg/mL) is recorded as “did not inhibit RBC adhesion”; at Recombinant human ICAM-1 (microchannels treated with 1, 5, 10, 20 mg/mL, n=5), “significantly decreased RBC adhesion in a concentration-dependent manner”. Also, the Adhesion blocked result on Recombinant human ICAM-1 (microchannels incubated with 5 mg/mL) was “about 50%”.

As to low molecular weight heparin [LMWH], the “Effect on RBC adhesion to ICAM-1” value at Recombinant human ICAM-1 (preincubation of microfluidic channels (not blood)) is listed as “had no effect”; on Recombinant human ICAM-1 (whole blood samples treated (1:1 v/v) at 0.1, 1, and 5 mg/mL), “significantly blocked RBC adhesion to ICAM-1”. For the same molecule, on Recombinant human ICAM-1 (pretreatment of blood samples at 0.1 mg/mL), the “Inhibition of RBC adhesion to ICAM-1” value amounted to 0.80%.

Take `Cc1ccc(NC(=O)c2ccc(CN3CCN(C)CC3)cc2)cc1Nc1nccc(-c2cccnc2)n1` [imatinib]: in test [1], the “Sickle RBC adhesion to heme-activated endothelial cells (mean adhesion±SEM)” value was 171±30.

“recombinant human β2 protein: recombinant human β2 protein solution (Novus Biologicals) to block β2-associated adhesion pathways”: in the test with Recombinant human ICAM-1 (microchannels treated with protein 1 hour 37° C., 5 experiments), the “Effect on HbSS RBC adhesion to immobilized ICAM-1” value was “No significant reduction”.

B1: Crizanlizumab: humanized monoclonal antibody against P-selectin (antibody, chains of the INN, looked up, V domains shown)
VH: QVQLVQSGAEVKKPGASVKVSCKVSGYTFTSYDINWVRQAPGKGLEWMGWIYPGDGSIKYNEKFKGRVTMTVDKSTDTAYMELSSLRSEDTAVYYCARRGEYGNYEGAMDYWGQGTLVTVSS
VL: DIQMTQSPSSLSASVGDRVTITCKASQSVDYDGHSYMNWYQQKPGKAPKLLIYAASNLESGVPSRFSGSGSGTDFTLTISSLQPEDFATYYCQQSDENPLTFGGGTKVEIK
On to B1, for which the “Leukocyte adhesion (adherent leukocytes, mean±SEM)” value in the test with P-selectin [2] (isotype control comparison, 100 μg/mL, N=3) is recorded as 596±221; with P-selectin [2] (setting [5]) it was 1535±258; with P-selectin [2] (setting [6]), 1057±325; with P-selectin [2] (pre-treatment 100 μg/mL, 37° C. 30 min, HbSS on-transfusion samples, N=8, 32 mm^2 area, 1 dyne/cm^2), 703±161; in the test with P-selectin [2] (setting [7]), 587±168; in the test with P-selectin [2] (pre-treatment 1 mg/mL, non-transfusion individuals (on-hydroxyurea or supportive care), N=8), 179±79. The “Leukocyte adhesion, range” value in the test with P-selectin [2] (setting [5]) is given as 257-2732; with P-selectin [2] (setting [6]), 195-2948; in the test with P-selectin [2] (pre-treatment 100 μg/mL, HbSS on-transfusion samples, N=8) it was 131-1474; with P-selectin [2] (setting [7]), 81-1403; with P-selectin [2] (pre-treatment 1 mg/mL, non-transfusion individuals, N=8), 39-691. Besides, in the test with P-selectin [3] (post-treatment 10 μg/mL after leukocytes adhered), the “Effect of post-treatment on adherent leukocytes” value is on record as “detachment of rolling leukocytes whereas firmly attached cells remained adherent”. Besides, in the test with P-selectin [3] (post-treatment 10 μg/mL, N=6), the “Leukocyte adhesion after introducing drug, range” value is 58-2388. The “Leukocyte adhesion after introducing drug into the microchannels (mean±SEM)” value with P-selectin [3] (post-treatment 10 μg/mL, N=6 (4 on-transfusion)) came to 719±354. The “Annual rate of VOC” value in the test with P-selectin [4] is “reduced the annual rate of VOC”.
